Among the data in publication PMC2034464 (Nucleic Acids Research, 2007) are binding result and Kd values, retold here.

The target in test [1] is T1, MutSβ (MSH2/MSH3 heterodimer) (human, UniProt P43246 1-934; P20585 1-1137). Nature of the test: pull-down.
Test [2] concerns the target T2, MutSα (MSH2/MSH6 heterodimer) (human, UniProt P43246 1-934; P52701 1-1360). Nature of the test: pull-down.
Test [3] addresses T3, MutLα (MLH1/PMS2 heterodimer) (human, UniProt P40692 1-756; P54278 1-862). Nature of the test: pull-down.
Test [4] deals with T2, MutSα (MSH2/MSH6 heterodimer). As to the kind of experiment: ELISA.
Test [5] addresses T1, MutSβ (MSH2/MSH3 heterodimer). Nature of the test: ELISA.
Test [6] concerns the target T3, MutLα (MLH1/PMS2 heterodimer). Nature of the test: ELISA. (In general: In an ELISA, binding on a coated surface is turned into a signal by an enzyme label.)

T3 sequence (P40692 whole entry, chain 1 of 2): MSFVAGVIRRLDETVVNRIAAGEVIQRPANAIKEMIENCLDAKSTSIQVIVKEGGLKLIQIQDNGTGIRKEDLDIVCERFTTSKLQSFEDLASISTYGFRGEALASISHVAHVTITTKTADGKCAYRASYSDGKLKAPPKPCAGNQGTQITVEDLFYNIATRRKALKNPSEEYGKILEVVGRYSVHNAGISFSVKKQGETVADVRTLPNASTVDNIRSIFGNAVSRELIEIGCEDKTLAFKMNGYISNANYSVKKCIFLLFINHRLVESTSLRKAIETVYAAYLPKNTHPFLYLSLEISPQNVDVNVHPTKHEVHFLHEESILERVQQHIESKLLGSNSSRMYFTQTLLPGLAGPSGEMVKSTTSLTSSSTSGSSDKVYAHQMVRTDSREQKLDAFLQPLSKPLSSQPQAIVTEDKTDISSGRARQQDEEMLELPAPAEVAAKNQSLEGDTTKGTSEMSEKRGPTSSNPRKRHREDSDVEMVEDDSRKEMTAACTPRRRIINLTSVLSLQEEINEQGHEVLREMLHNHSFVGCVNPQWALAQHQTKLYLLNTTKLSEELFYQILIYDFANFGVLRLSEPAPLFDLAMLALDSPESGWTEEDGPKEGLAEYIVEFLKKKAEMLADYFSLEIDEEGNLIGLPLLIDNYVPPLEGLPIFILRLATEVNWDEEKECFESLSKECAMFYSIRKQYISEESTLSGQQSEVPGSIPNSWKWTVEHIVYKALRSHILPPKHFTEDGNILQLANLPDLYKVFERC
T3 sequence (P54278 whole entry, chain 2 of 2): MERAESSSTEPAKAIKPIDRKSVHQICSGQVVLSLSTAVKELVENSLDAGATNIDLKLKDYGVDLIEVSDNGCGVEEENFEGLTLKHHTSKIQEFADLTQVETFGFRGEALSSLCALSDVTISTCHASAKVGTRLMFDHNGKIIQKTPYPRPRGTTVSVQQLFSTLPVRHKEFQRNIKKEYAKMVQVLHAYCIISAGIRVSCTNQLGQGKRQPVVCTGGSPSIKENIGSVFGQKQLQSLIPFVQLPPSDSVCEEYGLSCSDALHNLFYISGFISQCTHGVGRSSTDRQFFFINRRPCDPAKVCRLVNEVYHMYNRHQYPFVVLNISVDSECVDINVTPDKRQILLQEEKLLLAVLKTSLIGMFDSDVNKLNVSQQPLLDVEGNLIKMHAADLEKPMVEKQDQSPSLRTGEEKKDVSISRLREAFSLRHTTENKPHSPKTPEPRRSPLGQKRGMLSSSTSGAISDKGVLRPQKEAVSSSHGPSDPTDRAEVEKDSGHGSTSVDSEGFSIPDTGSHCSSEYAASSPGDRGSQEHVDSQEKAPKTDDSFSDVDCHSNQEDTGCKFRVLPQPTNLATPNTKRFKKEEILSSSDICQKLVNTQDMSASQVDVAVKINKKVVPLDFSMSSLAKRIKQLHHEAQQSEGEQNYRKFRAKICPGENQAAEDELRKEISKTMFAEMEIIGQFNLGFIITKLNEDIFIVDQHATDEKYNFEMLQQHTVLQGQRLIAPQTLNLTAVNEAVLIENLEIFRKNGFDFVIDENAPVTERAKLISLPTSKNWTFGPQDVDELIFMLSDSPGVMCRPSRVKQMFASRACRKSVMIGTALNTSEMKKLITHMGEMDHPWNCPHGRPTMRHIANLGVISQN
T1 sequence (P43246 whole entry, chain 1 of 2): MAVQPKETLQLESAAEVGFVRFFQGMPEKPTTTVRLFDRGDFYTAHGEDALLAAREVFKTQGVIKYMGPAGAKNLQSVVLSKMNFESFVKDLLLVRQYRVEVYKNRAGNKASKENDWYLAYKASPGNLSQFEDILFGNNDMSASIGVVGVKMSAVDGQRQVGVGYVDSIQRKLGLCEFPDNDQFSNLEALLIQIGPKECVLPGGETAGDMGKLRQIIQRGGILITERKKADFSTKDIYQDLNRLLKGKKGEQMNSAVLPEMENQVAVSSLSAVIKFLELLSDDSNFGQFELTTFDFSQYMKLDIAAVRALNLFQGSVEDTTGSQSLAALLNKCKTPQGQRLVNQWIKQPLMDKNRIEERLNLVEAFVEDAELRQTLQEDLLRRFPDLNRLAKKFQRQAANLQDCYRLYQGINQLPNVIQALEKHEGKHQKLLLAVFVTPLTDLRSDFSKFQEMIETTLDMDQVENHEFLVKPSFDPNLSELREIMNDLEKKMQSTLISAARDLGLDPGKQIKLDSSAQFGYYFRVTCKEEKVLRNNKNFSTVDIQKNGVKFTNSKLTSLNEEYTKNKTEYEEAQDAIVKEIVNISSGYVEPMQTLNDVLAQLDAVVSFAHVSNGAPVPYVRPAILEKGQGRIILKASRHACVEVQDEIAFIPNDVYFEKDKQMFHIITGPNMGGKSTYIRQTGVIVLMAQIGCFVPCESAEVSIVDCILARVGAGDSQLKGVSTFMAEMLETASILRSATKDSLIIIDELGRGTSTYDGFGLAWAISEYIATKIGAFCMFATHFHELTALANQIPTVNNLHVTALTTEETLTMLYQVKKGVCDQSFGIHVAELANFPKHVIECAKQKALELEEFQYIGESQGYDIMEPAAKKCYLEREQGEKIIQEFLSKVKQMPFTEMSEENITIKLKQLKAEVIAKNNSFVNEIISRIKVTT
T1 sequence (P20585 whole entry, chain 2 of 2): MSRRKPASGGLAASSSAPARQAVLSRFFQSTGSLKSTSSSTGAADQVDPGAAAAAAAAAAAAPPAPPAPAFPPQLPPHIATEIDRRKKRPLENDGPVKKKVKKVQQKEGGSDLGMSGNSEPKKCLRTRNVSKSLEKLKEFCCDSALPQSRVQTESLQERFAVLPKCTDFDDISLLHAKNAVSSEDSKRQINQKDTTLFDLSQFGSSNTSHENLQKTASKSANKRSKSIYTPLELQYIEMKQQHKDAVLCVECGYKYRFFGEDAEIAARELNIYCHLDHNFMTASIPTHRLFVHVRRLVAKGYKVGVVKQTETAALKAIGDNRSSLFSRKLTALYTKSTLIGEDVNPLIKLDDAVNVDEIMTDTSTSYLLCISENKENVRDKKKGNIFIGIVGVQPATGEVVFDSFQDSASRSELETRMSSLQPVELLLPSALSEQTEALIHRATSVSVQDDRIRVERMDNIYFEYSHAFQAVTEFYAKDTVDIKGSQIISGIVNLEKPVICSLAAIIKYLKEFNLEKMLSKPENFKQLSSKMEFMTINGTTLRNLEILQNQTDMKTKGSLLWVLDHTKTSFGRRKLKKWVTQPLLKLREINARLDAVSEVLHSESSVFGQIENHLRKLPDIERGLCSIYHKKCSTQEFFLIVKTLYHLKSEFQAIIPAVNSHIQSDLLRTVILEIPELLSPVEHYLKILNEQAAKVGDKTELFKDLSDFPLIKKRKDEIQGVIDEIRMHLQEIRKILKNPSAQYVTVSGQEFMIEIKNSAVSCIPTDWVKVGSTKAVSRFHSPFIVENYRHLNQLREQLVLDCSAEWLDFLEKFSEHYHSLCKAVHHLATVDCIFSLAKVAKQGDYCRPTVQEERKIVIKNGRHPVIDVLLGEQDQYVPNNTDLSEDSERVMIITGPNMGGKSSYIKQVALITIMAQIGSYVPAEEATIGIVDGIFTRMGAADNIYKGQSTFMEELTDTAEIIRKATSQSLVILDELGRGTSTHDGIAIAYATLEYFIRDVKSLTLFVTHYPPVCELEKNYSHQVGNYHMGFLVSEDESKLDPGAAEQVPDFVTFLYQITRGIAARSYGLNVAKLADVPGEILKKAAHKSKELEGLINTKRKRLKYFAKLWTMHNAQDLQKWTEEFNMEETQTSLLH

B1: GST-WRN fragment 949–1432 (domain or fragment, human, UniProt Q14191 949-1432, looked up)
chain: MDDSEDTSWDFGPQAFKLLSAVDILGEKFGIGLPILFLRGSNSQRLADQYRRHSLFGTGKDQTESWWKAFSRQLITEGFLVEVSRYNKFMKICALTKKGRNWLHKANTESQSLILQANEELCPKKLLLPSSKTVSSGTKEHCYNQVPVELSTEKKSNLEKLYSYKPCDKISSGSNISKKSIMVQSPEKAYSSSQPVISAQEQETQIVLYGKLVEARQKHANKMDVPPAILATNKILVDMAKMRPTTVENVKRIDGVSEGKAAMLAPLLEVIKHFCQTNSVQTDLFSSTKPQEEQKTSLVAKNKICTLSQSMAITYSLFQEKKMPLKSIAESRILPLMTIGMHLSQAVKAGCPLDLERAGLTPEVQKIIADVIRNPPVNSDMSKISLIRMLVPENIDTYLIHMAIEILKHGPDSGLQPSCDVNKRRCFPGSEEICSSSKRSKEEVGINTETSSAERKRRLPVWFAKGSDTSKKLMDKTKRGGLFS
Consider B1, for which, in test [1], the binding result was “binds”.

B2: GST-WRN fragment 500–1149 (domain or fragment)
chain: not shown
Consider B2, for which the binding result in test [1] is reported as “binds”.

B3: GST-WRN fragment 500–946 (domain or fragment)
chain: not shown
Take B3: the binding result in test [2], in test [1] and in test [3] was “binds” in each case.

B4: Recombinant human WRN (Werner syndrome helicase) (natural protein)
chain: not shown
As for B4, the results for the dissociation constant (Kd) in test [4], in test [5] and in test [6] were 38.5 nM, 8.8 nM and 34.9 nM, respectively.

B5: GST-WRN fragment 51–449 (domain or fragment, human, UniProt Q14191 51-449, looked up)
chain: GSIVYSYDASDCSFLSEDISMSLSDGDVVGFDMEWPPLYNRGKLGKVALIQLCVSESKCYLFHVSSMSVFPQGLKMLLENKAVKKAGVGIEGDQWKLLRDFDIKLKNFVELTDVANKKLKCTETWSLNSLVKHLLGKQLLKDKSIRCSNWSKFPLTEDQKLYAATDAYAGFIIYRNLEILDDTVQRFAINKEEEILLSDMNKQLTSISEEVMDLAKHLPHAFSKLENPRRVSILLKDISENLYSLRRMIIGSTNIETELRPSNNLNLLSFEDSTTGGVQQKQIREHEVLIHVEDETWDPTLDHLAKHDGEDVLGNKVERKEDGFEDGVEDNKLKENMERACLMSLDITEHELQILEQQSQEEYLSDIAYKSTEHLSPNDNENDTSYVIESDEDLEMEML
As for B5, in test [3], the binding result is reported as “binds”.
